# Source: the supplement of paper PMC7125110
# ± gives the standard error. Fewer inactive variants are shown than the library holds.
# B1: glmS ribozyme (parent)
# chain: AUAAAAGCGCCAGAACUACAGAAAUGUAGUUGACGAGGAGGAGGUUUAUCGAAUUUUCGGCGGAUGCCUCCAAA
# Tests used:
# Conditions in all cases: with glucosamine-6-phosphate
# glucosamine-6-phosphate [1] = variants of: B1; assay: self-cleavage kobs at 40 uM GlcN6P; higher = faster cleavage; RNA array
# Procedure, shortened: (§1)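 Barcoded glmS ribozyme variants on sequenced MiSeq chips were transcribed in situ by E. coli RNA polymerase and tracked through a hybridised Cy3 probe at 37 °C. Glucosamine-6-phosphate (40 μM to 10 mM) in HEPES/KCl/Mg(OAc)2 buffer was flowed in, and tiles were imaged over ~14 h. Signals were normalised to baseline and to non-cleaving reference variants; per-tile medians were fit to one- or two-exponential decays to give kobs. kcat and KM came from weighted Michaelis–Menten fits across concentrations.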
# glucosamine-6-phosphate [2] = variants of: B1; assay: self-cleavage kobs at 160 uM GlcN6P; higher = faster cleavage; RNA array
# Procedure, shortened: as §1
# glucosamine-6-phosphate [3] = variants of: B1; assay: self-cleavage kobs at 10000 uM GlcN6P; higher = faster cleavage; RNA array
# Procedure, shortened: as §1
# glucosamine-6-phosphate [4] = variants of: B1; assay: self-cleavage kobs at 640 uM GlcN6P; higher = faster cleavage; RNA array
# Procedure, shortened: as §1
# glucosamine-6-phosphate [5] = variants of: B1; assay: self-cleavage kobs at 2500 uM GlcN6P; higher = faster cleavage; RNA array
# Procedure, shortened: as §1
Variant,self-cleavage kobs at 40 uM GlcN6P (glucosamine-6-phosphate [1]),self-cleavage kobs at 160 uM GlcN6P (glucosamine-6-phosphate [2]),self-cleavage kobs at 10000 uM GlcN6P (glucosamine-6-phosphate [3]),self-cleavage kobs at 640 uM GlcN6P (glucosamine-6-phosphate [4]),self-cleavage kobs at 2500 uM GlcN6P (glucosamine-6-phosphate [5])
G41A U49A,< 1e-05 s⁻¹,< 1e-05 s⁻¹,< 1e-05 s⁻¹,,
A42C G44A,< 1e-05 s⁻¹,< 1e-05 s⁻¹,< 1e-05 s⁻¹,< 1e-05 s⁻¹,
G43C,< 1e-05 s⁻¹,< 1e-05 s⁻¹,,< 1e-05 s⁻¹,< 1e-05 s⁻¹
G41C U65G,< 1e-05 s⁻¹,< 1e-05 s⁻¹,,< 1e-05 s⁻¹,
G43C G59C,< 1e-05 s⁻¹,< 1e-05 s⁻¹,< 1e-05 s⁻¹,< 1e-05 s⁻¹,< 1e-05 s⁻¹
U45G C50U A53U,< 1e-05 s⁻¹,,,,
A42C G66C,< 1e-05 s⁻¹,< 1e-05 s⁻¹,< 1e-05 s⁻¹,< 1e-05 s⁻¹,< 1e-05 s⁻¹
U46A A48U U57A G60U C67U C68A,< 1e-05 s⁻¹,,,,< 1e-05 s⁻¹
G43A C58A,< 1e-05 s⁻¹,< 1e-05 s⁻¹,< 1e-05 s⁻¹,< 1e-05 s⁻¹,< 1e-05 s⁻¹
G41U C61G,< 1e-05 s⁻¹,< 1e-05 s⁻¹,< 1e-05 s⁻¹,< 1e-05 s⁻¹,< 1e-05 s⁻¹
G44C U69G,< 1e-05 s⁻¹,,< 1e-05 s⁻¹,,< 1e-05 s⁻¹
G44C A48C,< 1e-05 s⁻¹,< 1e-05 s⁻¹,< 1e-05 s⁻¹,,< 1e-05 s⁻¹
U46G G51U,< 1e-05 s⁻¹,< 1e-05 s⁻¹,< 1e-05 s⁻¹,< 1e-05 s⁻¹,< 1e-05 s⁻¹
U45G A64U,< 1e-05 s⁻¹,< 1e-05 s⁻¹,9.64e-05 ± 1.8e-05 s⁻¹,,
G41C G43C,< 1e-05 s⁻¹,< 1e-05 s⁻¹,< 1e-05 s⁻¹,< 1e-05 s⁻¹,
G44C U45C,< 1e-05 s⁻¹,< 1e-05 s⁻¹,,,
A42C C68G,< 1e-05 s⁻¹,< 1e-05 s⁻¹,,< 1e-05 s⁻¹,
A42U U65C,< 1e-05 s⁻¹,< 1e-05 s⁻¹,< 1e-05 s⁻¹,< 1e-05 s⁻¹,< 1e-05 s⁻¹
A42U U65A,< 1e-05 s⁻¹,< 1e-05 s⁻¹,4.89e-05 ± 1.2e-05 s⁻¹,,
G41U G60U A64U,< 1e-05 s⁻¹,< 1e-05 s⁻¹,< 1e-05 s⁻¹,,
U45A C70U,0.00112 ± 0.00012 s⁻¹,0.00187 ± 0.00068 s⁻¹,0.0102 ± 0.0018 s⁻¹,0.00199 ± 0.00047 s⁻¹,0.0203 ± 0.0092 s⁻¹
G41C U47C C68U,< 1e-05 s⁻¹,,,< 1e-05 s⁻¹,

Variant,self-cleavage kobs at 40 uM GlcN6P (glucosamine-6-phosphate [1]),self-cleavage kobs at 160 uM GlcN6P (glucosamine-6-phosphate [2]),self-cleavage kobs at 10000 uM GlcN6P (glucosamine-6-phosphate [3]),self-cleavage kobs at 640 uM GlcN6P (glucosamine-6-phosphate [4]),self-cleavage kobs at 2500 uM GlcN6P (glucosamine-6-phosphate [5])
G43U C50U,< 1e-05 s⁻¹,< 1e-05 s⁻¹,< 1e-05 s⁻¹,< 1e-05 s⁻¹,< 1e-05 s⁻¹
U46C G62U,< 1e-05 s⁻¹,< 1e-05 s⁻¹,< 1e-05 s⁻¹,,
G41C G59A,< 1e-05 s⁻¹,,,< 1e-05 s⁻¹,
G41C G44U G66U,< 1e-05 s⁻¹,,< 1e-05 s⁻¹,,< 1e-05 s⁻¹
U45A A48C C58U,< 1e-05 s⁻¹,,< 1e-05 s⁻¹,,
U46G C61G,< 1e-05 s⁻¹,< 1e-05 s⁻¹,< 1e-05 s⁻¹,< 1e-05 s⁻¹,
U45C U69G C71U,< 1e-05 s⁻¹,,,,
A42G U45A U49C,< 1e-05 s⁻¹,,,,
U46G G66C,0.000227 ± 3.8e-05 s⁻¹,0.000418 ± 0.00013 s⁻¹,,0.00135 ± 0.00038 s⁻¹,0.00594 ± 0.0017 s⁻¹
A42U G60C C67A,< 1e-05 s⁻¹,,< 1e-05 s⁻¹,,
G43U U46A U47G C70G,< 1e-05 s⁻¹,,< 1e-05 s⁻¹,< 1e-05 s⁻¹,< 1e-05 s⁻¹
G44U C58G C68U,< 1e-05 s⁻¹,< 1e-05 s⁻¹,< 1e-05 s⁻¹,< 1e-05 s⁻¹,< 1e-05 s⁻¹
G41U G63C C70A,< 1e-05 s⁻¹,,,,
G44C C67U C68U,< 1e-05 s⁻¹,< 1e-05 s⁻¹,,,
G41C G43A U46G C68A C70U,< 1e-05 s⁻¹,,,,
G44C G60C,< 1e-05 s⁻¹,< 1e-05 s⁻¹,< 1e-05 s⁻¹,< 1e-05 s⁻¹,
A42G G63A U69G,< 1e-05 s⁻¹,,< 1e-05 s⁻¹,,
G44C G62A,< 1e-05 s⁻¹,< 1e-05 s⁻¹,< 1e-05 s⁻¹,< 1e-05 s⁻¹,< 1e-05 s⁻¹
G44C G62C,< 1e-05 s⁻¹,< 1e-05 s⁻¹,< 1e-05 s⁻¹,< 1e-05 s⁻¹,< 1e-05 s⁻¹
A42C A53U,< 1e-05 s⁻¹,< 1e-05 s⁻¹,,< 1e-05 s⁻¹,
U45G A48U C71G,< 1e-05 s⁻¹,,,,
U45A G60U C68G C70U,< 1e-05 s⁻¹,,,,

Variant,self-cleavage kobs at 40 uM GlcN6P (glucosamine-6-phosphate [1]),self-cleavage kobs at 160 uM GlcN6P (glucosamine-6-phosphate [2]),self-cleavage kobs at 10000 uM GlcN6P (glucosamine-6-phosphate [3]),self-cleavage kobs at 640 uM GlcN6P (glucosamine-6-phosphate [4]),self-cleavage kobs at 2500 uM GlcN6P (glucosamine-6-phosphate [5])
A42C U49A,< 1e-05 s⁻¹,< 1e-05 s⁻¹,,< 1e-05 s⁻¹,< 1e-05 s⁻¹
G41U A48U C68A,< 1e-05 s⁻¹,,,,< 1e-05 s⁻¹
G41U U57G,< 1e-05 s⁻¹,< 1e-05 s⁻¹,,< 1e-05 s⁻¹,
U45A C61A,< 1e-05 s⁻¹,,< 1e-05 s⁻¹,< 1e-05 s⁻¹,< 1e-05 s⁻¹
U45C G63U,< 1e-05 s⁻¹,< 1e-05 s⁻¹,< 1e-05 s⁻¹,< 1e-05 s⁻¹,< 1e-05 s⁻¹
A42G G66A,0.000416 ± 6.5e-05 s⁻¹,0.000862 ± 0.0002 s⁻¹,0.0267 ± 0.0068 s⁻¹,0.00611 ± 0.00079 s⁻¹,0.00984 ± 0.0018 s⁻¹
G41U G60U,< 1e-05 s⁻¹,< 1e-05 s⁻¹,< 1e-05 s⁻¹,< 1e-05 s⁻¹,
G44C U46A G51A,< 1e-05 s⁻¹,,,,
G43U A64U,< 1e-05 s⁻¹,,< 1e-05 s⁻¹,< 1e-05 s⁻¹,< 1e-05 s⁻¹
U46G A53U U69C,7.38e-05 ± 2.7e-05 s⁻¹,,0.00109 ± 0.0003 s⁻¹,,
U45G G59C,< 1e-05 s⁻¹,< 1e-05 s⁻¹,,< 1e-05 s⁻¹,< 1e-05 s⁻¹
A42U G51C,< 1e-05 s⁻¹,< 1e-05 s⁻¹,,< 1e-05 s⁻¹,
G43U G44U,< 1e-05 s⁻¹,< 1e-05 s⁻¹,< 1e-05 s⁻¹,< 1e-05 s⁻¹,< 1e-05 s⁻¹
A42C U45A C67A,< 1e-05 s⁻¹,,,,
U45G A52C,< 1e-05 s⁻¹,,,,
G41U C68U C71A,< 1e-05 s⁻¹,,,,
A42G G60U C68G,< 1e-05 s⁻¹,,,< 1e-05 s⁻¹,
G44C A52U,< 1e-05 s⁻¹,,,,
G41A G43U A53G C71G,< 1e-05 s⁻¹,,,,< 1e-05 s⁻¹
G41C C61G,< 1e-05 s⁻¹,< 1e-05 s⁻¹,,< 1e-05 s⁻¹,< 1e-05 s⁻¹
A42C G51A C61U,< 1e-05 s⁻¹,< 1e-05 s⁻¹,< 1e-05 s⁻¹,,
G41A C68G,< 1e-05 s⁻¹,< 1e-05 s⁻¹,< 1e-05 s⁻¹,< 1e-05 s⁻¹,< 1e-05 s⁻¹

Variant,self-cleavage kobs at 40 uM GlcN6P (glucosamine-6-phosphate [1]),self-cleavage kobs at 160 uM GlcN6P (glucosamine-6-phosphate [2]),self-cleavage kobs at 10000 uM GlcN6P (glucosamine-6-phosphate [3]),self-cleavage kobs at 640 uM GlcN6P (glucosamine-6-phosphate [4]),self-cleavage kobs at 2500 uM GlcN6P (glucosamine-6-phosphate [5])
U46G C70U,0.000256 ± 2.3e-05 s⁻¹,0.000556 ± 8.8e-05 s⁻¹,0.00705 ± 0.00083 s⁻¹,0.00125 ± 0.0002 s⁻¹,0.00235 ± 0.00055 s⁻¹
U46A C50G A53U C70G,0.000147 ± 6.3e-05 s⁻¹,,0.000126 ± 3.8e-05 s⁻¹,,
G41A U49C U56A,< 1e-05 s⁻¹,,,,
G41C C58A,< 1e-05 s⁻¹,< 1e-05 s⁻¹,< 1e-05 s⁻¹,,
U46G A52G C61A,< 1e-05 s⁻¹,,,,
G41U C50U G59U G66U,< 1e-05 s⁻¹,,,,
G43A G59C,< 1e-05 s⁻¹,< 1e-05 s⁻¹,< 1e-05 s⁻¹,< 1e-05 s⁻¹,
U45G G63U,< 1e-05 s⁻¹,< 1e-05 s⁻¹,< 1e-05 s⁻¹,< 1e-05 s⁻¹,< 1e-05 s⁻¹
G44A C70A,< 1e-05 s⁻¹,< 1e-05 s⁻¹,< 1e-05 s⁻¹,,< 1e-05 s⁻¹
G41U U49A,< 1e-05 s⁻¹,,< 1e-05 s⁻¹,< 1e-05 s⁻¹,
G41U G60U U69C,< 1e-05 s⁻¹,,< 1e-05 s⁻¹,,
U45G C58U,< 1e-05 s⁻¹,< 1e-05 s⁻¹,,,
U45A U55A A64G,0.00112 ± 0.00022 s⁻¹,,0.0175 ± 0.0056 s⁻¹,0.00335 ± 0.0011 s⁻¹,0.00972 ± 0.0028 s⁻¹
G44A U47A C71A,< 1e-05 s⁻¹,,< 1e-05 s⁻¹,< 1e-05 s⁻¹,< 1e-05 s⁻¹
A42C U49A G63C,< 1e-05 s⁻¹,,,,
G44A U46G U69G,< 1e-05 s⁻¹,,< 1e-05 s⁻¹,,
A42G G63A,< 1e-05 s⁻¹,< 1e-05 s⁻¹,< 1e-05 s⁻¹,< 1e-05 s⁻¹,< 1e-05 s⁻¹
G44C U45G C58G,< 1e-05 s⁻¹,,,,
G44A G63C,< 1e-05 s⁻¹,,< 1e-05 s⁻¹,< 1e-05 s⁻¹,< 1e-05 s⁻¹
G44A G63U,< 1e-05 s⁻¹,< 1e-05 s⁻¹,< 1e-05 s⁻¹,< 1e-05 s⁻¹,< 1e-05 s⁻¹
G41U A42G G44A A48G,< 1e-05 s⁻¹,,,< 1e-05 s⁻¹,
U46C G51U,< 1e-05 s⁻¹,< 1e-05 s⁻¹,,< 1e-05 s⁻¹,< 1e-05 s⁻¹
